According to PMC5308896, “A conformational switch regulates the ubiquitin ligase HUWE1” (eLife, 2017):
One block for each molecule: values may come before it.

Legend:
[1] = molecular target: HUWE1 (3951–4374), crystallization construct with the N-terminal expression tag (human) (UniProt Q7Z6Z7); assay: SEC-MALS; proteins injected at high concentration (~350 to 400 μM; highest point of Figure 3A, Figures 4A, 4F, 4G, Table 2); Superdex 200 10/300 GL, room temperature, 20 mM HEPES pH 8.0, 250 mM NaCl, 1 mM EDTA, 5 mM DTT
[2] = molecular target: HUWE1 (3951–4374), untagged (human) (UniProt Q7Z6Z7); assay: AUC; sedimentation equilibrium, dimer to monomers (monomer-dimer self-association model, Sedphat); 10 µM protein, 4°C, 10 mM HEPES pH 8.0, 200 mM NaCl, 1 mM EDTA, 1 mM β-mercaptoethanol; 9000, 13,000 and 17,000 rpm
[3] = molecular target: T1, HUWE1 (3843–4374) (human, UniProt Q7Z6Z7 3843-4374); assay: SEC; HUWE1 constructs at 120 μM without and with a four-fold molar excess of p14ARF (45-75); 10% DMSO; Superdex 200 Increase 3.2/300, 4°C; co-elution of the peptide shown by SDS-PAGE; conditions: both partners purified
T1 construct: source: LOBSTR RIL cells, purified (IMAC, gel filtration)
T1 sequence (looked up): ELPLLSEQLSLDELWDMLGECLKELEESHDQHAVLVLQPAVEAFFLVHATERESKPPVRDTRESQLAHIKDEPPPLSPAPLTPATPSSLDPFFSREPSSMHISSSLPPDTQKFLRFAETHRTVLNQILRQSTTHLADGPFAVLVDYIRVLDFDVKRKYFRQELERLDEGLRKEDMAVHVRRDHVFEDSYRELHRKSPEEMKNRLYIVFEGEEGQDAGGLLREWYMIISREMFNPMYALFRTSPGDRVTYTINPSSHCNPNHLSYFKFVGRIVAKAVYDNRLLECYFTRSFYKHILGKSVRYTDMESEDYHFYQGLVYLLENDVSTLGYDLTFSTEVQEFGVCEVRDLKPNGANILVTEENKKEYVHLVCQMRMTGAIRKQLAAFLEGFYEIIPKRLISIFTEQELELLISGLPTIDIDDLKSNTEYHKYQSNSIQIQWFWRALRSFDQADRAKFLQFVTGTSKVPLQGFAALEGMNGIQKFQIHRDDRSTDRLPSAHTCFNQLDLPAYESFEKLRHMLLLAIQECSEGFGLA

[4] = molecular target: T1, HUWE1 (3843–4374); assay: SEC; as the SEC with p14ARF (45-75), but with p14ARF (45-64); result told only in one sentence of the methods, no data shown; conditions: both partners purified
[5] = molecular target: T2, HUWE1 (3951–4374), untagged (human, UniProt Q7Z6Z7 3951-4374); assay: SEC; MBP-tagged activation segment (or MBP) and HUWE1 constructs, each alone at 120 μM and as a 1.5:1 molar mixture; Superdex 200 Increase 3.2/300, 4°C, 20 mM HEPES pH 8.0, 100 mM NaCl, 1 mM EDTA, 5 mM DTT; conditions: both partners purified
T2 construct: Monomer MW 49.752 kDa (AUC methods); source: LOBSTR RIL cells, purified (IMAC, TEV protease cleavage, second IMAC, gel filtration); not shown: His6, N-terminal, cleaved
T2 sequence (looked up): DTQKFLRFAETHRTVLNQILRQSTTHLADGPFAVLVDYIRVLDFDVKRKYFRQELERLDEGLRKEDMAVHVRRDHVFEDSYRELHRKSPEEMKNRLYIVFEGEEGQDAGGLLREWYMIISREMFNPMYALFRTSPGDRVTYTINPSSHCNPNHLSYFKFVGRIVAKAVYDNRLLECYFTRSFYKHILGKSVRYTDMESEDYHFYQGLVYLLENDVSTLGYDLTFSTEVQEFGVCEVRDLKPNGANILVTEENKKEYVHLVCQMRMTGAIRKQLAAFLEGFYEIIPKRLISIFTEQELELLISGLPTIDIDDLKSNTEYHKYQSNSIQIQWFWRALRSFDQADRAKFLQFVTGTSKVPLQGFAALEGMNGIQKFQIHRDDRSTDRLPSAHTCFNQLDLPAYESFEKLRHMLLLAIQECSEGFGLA

[6] = molecular target: the molecule itself; assay: SEC-MALS; proteins injected at high concentration (~350 to 400 μM; highest point of Figure 3A, Figures 4A, 4F, 4G, Table 2); Superdex 200 10/300 GL, room temperature, 20 mM HEPES pH 8.0, 250 mM NaCl, 1 mM EDTA, 5 mM DTT

stoichiometry N [1]: 2
Molecule: HUWE1 (3951–4374), crystallization construct with the N-terminal expression tag (from UniProt Q7Z6Z7 3951-4374) (domain or fragment)

Kd [2]: 2900 nM
Molecule: HUWE1 (3951–4374), untagged (from UniProt Q7Z6Z7 3951-4374) (domain or fragment)

binding result [3]: binds
B1: p14ARF-derived peptide (residues 45–75) (peptide, UniProt Q8N726 45-75, looked up)
peptide: LVLMLLRSQRLGQQPLPRRPGHDDGQRPSGG
notes: p14ARF, human, residues 45–75; also called p14ARF (45-75); p14ARF-peptide; source: synthetic peptide, bought: Elim Biopharm

binding result [4]: binds
B2: p14ARF-derived peptide (residues 45–64), unlabelled (peptide, UniProt Q8N726 45-64, looked up)
peptide: LVLMLLRSQRLGQQPLPRRP
notes: p14ARF, human, residues 45–64; also called p14ARF (45-64); source: synthetic peptide, bought: Elim Biopharm

binding result [5]: binds
B3: MBP-tagged activation segment of HUWE1 (residues 3843–3902) (domain or fragment, human, UniProt Q7Z6Z7 3843-3902, looked up)
chain: ELPLLSEQLSLDELWDMLGECLKELEESHDQHAVLVLQPAVEAFFLVHATERESKPPVRD
notes: pETM41: N-terminal TEV protease-cleavable MBP-tag, C-terminal 3C protease-cleavable His6-tag; source: E. coli BL21(DE3), purified (IMAC, gel filtration); not shown: MBP, N-terminal, kept; His6, C-terminal, kept

B4: HUWE1 (3896–4374) (domain or fragment, human, UniProt Q7Z6Z7 3896-4374, looked up)
chain: SKPPVRDTRESQLAHIKDEPPPLSPAPLTPATPSSLDPFFSREPSSMHISSSLPPDTQKFLRFAETHRTVLNQILRQSTTHLADGPFAVLVDYIRVLDFDVKRKYFRQELERLDEGLRKEDMAVHVRRDHVFEDSYRELHRKSPEEMKNRLYIVFEGEEGQDAGGLLREWYMIISREMFNPMYALFRTSPGDRVTYTINPSSHCNPNHLSYFKFVGRIVAKAVYDNRLLECYFTRSFYKHILGKSVRYTDMESEDYHFYQGLVYLLENDVSTLGYDLTFSTEVQEFGVCEVRDLKPNGANILVTEENKKEYVHLVCQMRMTGAIRKQLAAFLEGFYEIIPKRLISIFTEQELELLISGLPTIDIDDLKSNTEYHKYQSNSIQIQWFWRALRSFDQADRAKFLQFVTGTSKVPLQGFAALEGMNGIQKFQIHRDDRSTDRLPSAHTCFNQLDLPAYESFEKLRHMLLLAIQECSEGFGLA
notes: source: LOBSTR RIL cells, purified (IMAC, gel filtration)
stoichiometry N [6]: 2
